Experimental data taken from US20200024362A1 (SHANGHAI BENEMAE PHARMACEUTICAL, published 2020).
Substitutions are numbered along the chain they refer to. Like-named read-outs stand apart in the source and are kept apart here.

Columns and labels:
[1] = biological target: T1, human coagulation factor XI (human, UniProt P03951 19-625); test: SPR (Biacore T200), antibody captured on anti-human IgG CM5 chip, FXI flowed
T1 construct: Bought from Enzyme Research Laboratory (HFXI 1111); also called FXI; human FXI
Method: (§1) The affinity of anti-FXI/FXIa antibodies to FXI/FXIa were determined using surface plasmon resonance (SPR) technology performed on the BIAcore T200 instrument. […] These antibodies were captured onto a Biacore CM5 sensor chip that was pre-immobilized with an anti-human IgG antibody.
(§2) Then different concentrations of the purified antigen FXI or FXIa (0.005-1 μg/mL) were allowed to flow through the CM5 chip for 180 s for association with the anti-FXI/FXIa antibody, followed by a time of 1800 s for dissociation. The binding data was collected and the affinity between FXI/FXIa and the test antibodies was analyzed using the Biacore Evaluation Software provided by GE Healthcare.

[2] = biological target: T1, human coagulation factor XI; test: SPR, antibody captured on sensor chip, FXI flowed
Method: (§3) The interaction of the antibodies with FXI was determined by the SPR assay on a Biacore T200 system (Biacore, GE Healthcare). Briefly, human IgG capture antibody (Biacore, GE Healthcare) was pre-immobilized on a CM5 sensor chip (GE Healthcare), and test antibodies were captured by flowing through the chip. The final amount of the test antibodies captured was adjusted to an equal amount of 15 response units (RU) by adjusting the capture time. Then, antigen FXI was allowed to flow through the chip for 180 s for association and then for 1200 s for dissociation. […] The data were collected and the affinities between the test antibodies and FXI were analyzed using the Biacore Evaluation Software.
(§4) The test antibodies were captured on a sensor chip, and then indicated concentrations of FXI were allowed to flow through the chip.

[3] = biological target: T2, human factor XIa (human, UniProt P03951 19-387; P03951 388-625); test: cell-based or functional assay
[4] = biological target: T1, human coagulation factor XI; test: SPR (Biacore T200), antibody captured on anti-human IgG CM5 chip, FXI 0.063 to 6.25 nM flowed
Method: as §3, §4

[5] = biological target: T2, human factor XIa; test: apparent Ki, inhibition of FXIa (5 nM) cleavage of chromogenic substrate S-2366
[6] = biological target: T2, human factor XIa; test: SPR (Biacore T200), antibody captured on sensor chip, FXIa 0.063 to 6.25 nM flowed
[7] = biological target: T2, human factor XIa; test: SPR (Biacore T200), antibody captured on anti-human IgG CM5 chip, FXIa flowed
Method: as §1, §2

[8] = biological target: T2, human factor XIa; test: SPR, antibody captured on sensor chip, FXIa flowed
[9] = biological target: T1, human coagulation factor XI; test: capture ELISA screening of hybridomas from animals immunized with human FXI
[10] = biological target: T2, human factor XIa; test: SPR (Biacore T200), antibody captured on sensor chip, FXIa 0.063 to 6.25 nM flowed; remark: listed apart in the source
[11] = biological target: T2, human factor XIa; test: cell-based or functional assay; remark: listed apart in the source
[12] = biological target: T1, human coagulation factor XI; test: SPR (Biacore T200), antibody captured on anti-human IgG CM5 chip, FXI 0.063 to 6.25 nM flowed; remark: listed apart in the source
Method: as §3, §4

B1: h-19F6 (antibody, V domains shown)
VH: EVQLVESGGGLVQPGRSLRLSCTASGFTFSKYAMSWVRQAPGKGLEWVSAINYDGSTTYYADSVKGRFTLSRDNSKNTLYLQMNSLRAEDTAVYYCARHPFNNFGIWFAYWGQGTLVTVS
VL: QFQLTQPSSVSASVGDRVTITCERSSGDIGDSYVSWYQQKPGQPPKNVIYADDQRPSGVPDRFSGSIDGSGNSASLTISSLQAEDAADYFCQSYDSNIDFNPVFGGGTKLEVK
notes: Humanized rat antibody in human IgG4 form (variable regions linked to human IgG4 Fc domain, expressed in CHO cells); also called humanized 19F6
[1]
  Kd: 0.0222 nM
[2]
  Kd: 0.022 nM
[3]
  IC50 (read off the curve): ~3 nM
[4]
  koff: 5.88e-05 s⁻¹
  kon: 2.65e+06 M⁻¹ s⁻¹
[5]
  Ki: 0.67 nM
[6]
  koff: 8.36e-05 s⁻¹
  kon: 3.24e+06 M⁻¹ s⁻¹
[7]
  Kd: 0.0258 nM
[8]
  Kd: 0.026 nM

B2: 34F8 (antibody, V domains shown)
VH: QVQLKESGPGLVQPSQTLSLTCTVSGFSLTTYHVHWVRQPPGKGLEWMGIMWRDGDTSYNSVLKSRLSISRDISKSQVFLKMSSLQTEDTATYFCARGGTLTTPFTYWGQGTLVTVSS
VL: DVVLTQTPGSLSVTLGQQVSISCRSSQSLESRDGNTYLEWYLQKPGQSPQVLLYGVSNRLSGVPDRFLGRGSGADFTLKISRVEPEDLGVYYCFQATHGPFTFGSGTKLEMK
notes: Hybridoma monoclonal antibody
[9]
  binding result: binds

B3: 13F4 (antibody, V domains shown)
VH: EVQLKESGPGLVQPSQTLSLTCTVSGFSLTDYSVHWVRQPPGKGLEWMGVMWSGGSTAYNPALTSRLTISRDTSKSQVFLKMNSLQTEDTAIYYCTRAPFNNWGNWLPYWGQGTLVTVSS
VL: QFTLTQPKSVSGSLRSTITIPCERSSGDIGDSYVSWYQQHLGRPPINVIYADDQRPSEVSARFSGSIDSSSNSASLTITNLQMDDEADYFCQSYDTYMDVVFGGGTKLNVL
notes: Hybridoma monoclonal antibody
[9]
  binding result: binds

B4: 3G12 (antibody, V domains shown)
VH: QVTLKESGPGILQPSQTLSLTCSFSGFSLNTPGMGVSWIRQPSGKGLEWLAHIYWDDDKRFNPSLKSRLTISKDTSRDQVFLMITSVDTADSATYFCARKGRGPFTYWGQGTLVTVSS
VL: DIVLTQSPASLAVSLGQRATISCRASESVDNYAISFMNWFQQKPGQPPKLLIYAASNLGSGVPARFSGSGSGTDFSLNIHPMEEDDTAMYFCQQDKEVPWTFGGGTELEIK
notes: Hybridoma monoclonal antibody
[9]
  binding result: binds

B5: 5B2 (antibody, V domains shown)
VH: B4 VH with P32S, F61Y, N62K, D78N, S92T, F96Y, A98V, T106A, Y107N, S118A
VL: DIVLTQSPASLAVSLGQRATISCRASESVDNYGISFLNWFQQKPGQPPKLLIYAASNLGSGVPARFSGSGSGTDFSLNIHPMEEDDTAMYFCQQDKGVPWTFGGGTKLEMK
notes: Hybridoma monoclonal antibody
[9]
  binding result: binds

B6: h-42A5 (antibody, V domains shown)
VH: QVTLKESGPVLVKPTETLTLTCTVSGFSLTSYHLHWIRQPPGKALEWMGLMWRDGDTSYNSRLKSRLTISRDTSKSQVVLTMTNMDPVDTATYYCARGMTLATPFLYWGQGTLVTVSS
VL: DVVLTQTPLSLSVTPGQPASISCRSSQSLESSDGNTYLEWYLQKPGQSPQLLIYGVSNRFSGVPDRFSGSGSGTDFTLKISRVEAEDLGVYYCFQATRDPFTFGQGTKLEIKR
notes: Humanized antibody in human IgG4 form; also called humanized 42A5
[10]
  koff: 1.38e-05 s⁻¹
  kon: 1.69e+06 M⁻¹ s⁻¹
[1]
  Kd: 0.0357 nM
[11]
  IC50 (read off the curve): ~5 nM
[2]
  Kd: 0.036 nM
[5]
  Ki: 1.43 nM
[12]
  koff: 4.07e-05 s⁻¹
  kon: 1.14e+06 M⁻¹ s⁻¹
[7]
  Kd: 0.00814 nM
[8]
  Kd: 0.0081 nM

B7: h-34F8 (antibody, V domains shown)
VH: QVQLQESGPGLVKPSETLSLTCTVSGFSLTTYHVHWVRQPPGKGLEWIGIMWRDGDTYYNSSLKSRVTISRDTSKNQVSLKLSSVTAADTAVYFCARGGTLTTPFTYWGQGTLVTVSS
VL: B6 VL with S12P, Q17E, S32R, L51V, I53L, F60L, L88V, R98H, D99G
notes: Humanized antibody in human IgG4 form; also called humanized 34F8
[1]
  Kd: 0.0195 nM
[5]
  Ki: 2.08 nM
[7]
  Kd: 0.00385 nM

B8: 19F6 (antibody, V domains shown)
VH: EVQLVESGGGLVQPGRSLRLSCTASGFTFSKYVMAWVRQAPTKGLEWVASINYDGSTTYYRDSVQGRFTLSRDNAKTTLYLQMDSLRSEDTATYYCARHPFNNFGIWFAYWGQGTLVTVSS
VL: QFTLTQPKSVSGSLRSTITIPCERSSGDIGDSYVSWYQQHLGRPPINVIYADDQRPSEVSDRFSGSIDTSSNSASLTITNLQMDDAADYFCQSYDSNIDFNPVFGGGTKLTVL
notes: Hybridoma monoclonal antibody (rat, immunized with human FXI)
[9]
  binding result: binds

B9: 38E4 (antibody, V domains shown)
VH: EVQLQESGPGLVKPSQSLSLTCSVSGFSITNNYWGWIRKFPRNKMEWIGHISYSGSTNYNPSLKSRISITRDSSKSQFFLQLNSLTTEDTATYYCARGSYYYSASGYFDYWGQGITVTVSS
VL: DIRMTQSPASLSASLGETVNIECLASEDIYSDLAWYQQKPGKSPQLLIYNANSVQNGVPSRFSGSGSGTQYSLKINSLQSEDVATYFCQQFNSYPNTFGAGTKLEIK
notes: Hybridoma monoclonal antibody
[9]
  binding result: binds

B10: 45H1 (antibody, V domains shown)
VH: EVQLQESGPGLVKPSQSLSLICSVTGYSITTTYWGWIRKFPGNKMEWIGHISNSGSTNYNPSLKSRISVTRDTSTNQFFLQLNSVTTEDTATYYCARGSYYYSASGYFDYWGHGVMVTVSS
VL: B9 VL with E22G, S53N, V54L, F91Y
notes: Hybridoma monoclonal antibody
[9]
  binding result: binds

B11: 7C9 (antibody, V domains shown)
VH: QIQLVQSGPELKKPGETVKISCKASGYIFTDYGMNWVKQAPGKGLKWMGWINTYTGEPTYADDFKGRFVFSLETSASTAYLQINNLKNEDTATFFCARRRMGYAVDYWGQGTSVTVSS
VL: DIQMTQSPSSLSASLGERVSLTCRASQDIDIRLNWLRQEPDGTIKRLIYATSSLDSGVPKRFSGSRSGSDYSLTISSLESEDFVDYYCLQYASSPFTFGSGTKLEIK
notes: Hybridoma monoclonal antibody
[9]
  binding result: binds

B12: 21F12 (antibody, V domains shown)
VH: EVQLVESGGGLVQPGRSLKLSCVASGFTFNNHWMTWIRQAPGKGLEWVASITDNGGSTYYPDSVKGRFTISRDNAKSTLYLHMNSLRSEDTATYYCTRDRYDSDGYYYVRYYVVDAWGQGASVTVSS
VL: DVRMTQSPASLSASLGETVNIECLASEDIYSDLAWYQQKPGKSPQLLIYNANSLQNGVPSRFSGSGSGTQYSLKISTLQSEDVATYFCQQYSNYRRTFGGGTKLEIN
notes: Hybridoma monoclonal antibody
[9]
  binding result: binds

B13: 42F4 (antibody, V domains shown)
VH: B10 VH with I21T, T31N, T32H, S56G, V69I, T75K, N83K, A96T, H113Q, M116L
VL: B9 VL with Y30H, V54L, N76T, F91Y, N92T, S93N, K107N
notes: Hybridoma monoclonal antibody
[9]
  binding result: binds

B14: 42A5 (antibody, V domains shown)
VH: QVQLKESGPGLVQPSQTLSLTCTVSGFSLTSYHLHWIRQPPGKGLEWMGLMWRDGDTSYNSRLKSRLSITRDTSKSQVFLKMSGLQTEDTATYYCARGMTLATPFLYWGQGTLVTVSS
VL: DVVLTQTPGSLSVTLGDPASMSCRSSQSLESSDGNTYLEWYLQKSGQSPQLLIYGVSNRFSGVPDRFAGSGSGTDFTLKISRVEPEDLGVYYCFQATRDPFTFGSGTKLEIN
notes: Hybridoma monoclonal antibody
[9]
  binding result: binds
